Substrate in this data set: O=S(O)O
The data set can be described thus: purified protein. Type of data set: biochemical, Homo sapiens. The note with it: pH 8.0, cytochrome c as electron acceptor, no added chloride.

B1: wt hSO (human sulfite oxidase) (Homo sapiens) (protein)
chain: ESTHIYTKEEVSSHTSPETGIWVTLGSEVFDVTEFVDLHPGGPSKLMLAAGGPLEPFWALYAVHNQSHVRELLAQYKIGELNPEDKVAPTVETSDPYADDPVRHPALKVNSQRPFNAEPPPELLTENYITPNPIFFTRNHLPVPNLDPDTYRLHVVGAPGGQSLSLSLDDLHNFPRYEITVTLQCAGNRRSEMTQVKEVKGLEWRTGAISTARWAGARLCDVLAQAGHQLCETEAHVCFEGLDSDPTGTAYGASIPLARAMDPEAEVLLAYEMNGQPLPRDHGFPVRVVVPGVVGARHVKWLGRVSVQPEESYSHWQRRDYKGFSPSVDWETVDFDSAPSIQELPVQSAITEPRDGETVESGEVTIKGYAWSGGGRAVIRVDVSLDGGLTWQVAKLDGEEQRPRKAWAWRLWQLKAPVPAGQKELNIVCKAVDDGYNVQPDTVAPIWNLRGVLSNAWHRVHVYVSP
On to B1, for which the kcat (in general, the number of substrate molecules converted per active site and unit of time at saturation) came out at 27 ± 2 s⁻¹.

Source of the values: publication PMC2890295 (Biochemistry, 2010).
